Experimental data reported in paper PMC8265641, “Enterococcal PrgU Provides Additional Regulation of Pheromone-Inducible Conjugative Plasmids”.

How the values were obtained:
[1] = biological target: PrgU-His (PrgU with C-terminal His tag) (Enterococcus faecalis (plasmid pCF10)); test: GEMMA (gas-phase electrophoretic mobility macromolecule analysis); main SEC peak of PrgU-His diluted to 0.01 mg/ml in 20 mM ammonium acetate, pH 7.8; self-association, dimer and monomer
[2] = biological target: PrgU-His (PrgU with C-terminal His tag) (Enterococcus faecalis (plasmid pCF10)); test: SEC-MALS; 200 ul PrgU-His at 1 mg/ml on Superdex 200 10/300 GL Increase, 20 mM potassium phosphate pH 7.0, 150 mM NaCl; self-association, dimer
PrgU-His = PrgU-His (Enterococcus faecalis plasmid pCF10, UniProt Q5G3Q2 1-118); test: MST; MST: 20 mM KPi pH 7.0, 150 mM NaCl, 0.05% Tween 20, 0.1 U/ul RNase inhibitor, ~25 C; EMSA: 20 min at ~25 C, 1% agarose run at 4 C, buffer as previously described (not given); conditions: protein: recombinant, tags: C-terminal 10xHis with 3C protease site

In the case of “PrgU-His (PrgU with C-terminal His tag) (natural protein)”, the stoichiometry N [1] is reported as 2 and the stoichiometry N [2] is reported as 2.

B1: IRS1 ssDNA (ssDNA)
DNA: GGAGCAGCGGGGAATGTATACAGTTCATGTATATGTTCCCCGCTTTTTTTG
B1: no binding (PrgU-His).

B2: IRS1 dsDNA (dsDNA)
DNA 1: GGAGCAGCGGGGAATGTATACAGTTCATGTATATGTTCCCCGCTTTTTTTG
DNA 2: CAAAAAAAGCGGGGAACATATACATGAACTGTATACATTCCCCGCTGCTCC
B2: no binding (PrgU-His; blunt).

B3: IRS1 RNA (structured_RNA)
RNA: GGAGCAGCGGGGAAUGUAUACAGUUCAUGUAUAUGUUCCCCGCUUUUUUUG
B3: no binding (PrgU-His; hairpin).

ACUCGUAAGAGCCGUGCAAACAACGUGUUGCAUGGCUCUUUUUCUAC (structured_RNA) [IRS2 RNA]: no binding (PrgU-His; hairpin).

ACTCGTAAGAGCCGTGCAAACAACGTGTTGCATGGCTCTTTTTCTAC (ssDNA) [IRS2 ssDNA]: no binding (PrgU-His).

B4: IRS2 dsDNA (dsDNA)
DNA 1: ACTCGTAAGAGCCGTGCAAACAACGTGTTGCATGGCTCTTTTTCTAC
DNA 2: GTAGAAAAAGAGCCATGCAACACGTTGTTTGCACGGCTCTTACGAGT
B4: no binding (PrgU-His; blunt).
